Measured values reported in PMC4197815.

Molecular target: NL2HA-S714A (human) (UniProt Q8NFZ4)
Assay: co-IP

Sequence of UniProt Q8NFZ4 (Q8NFZ4 15-835, stated change not applied): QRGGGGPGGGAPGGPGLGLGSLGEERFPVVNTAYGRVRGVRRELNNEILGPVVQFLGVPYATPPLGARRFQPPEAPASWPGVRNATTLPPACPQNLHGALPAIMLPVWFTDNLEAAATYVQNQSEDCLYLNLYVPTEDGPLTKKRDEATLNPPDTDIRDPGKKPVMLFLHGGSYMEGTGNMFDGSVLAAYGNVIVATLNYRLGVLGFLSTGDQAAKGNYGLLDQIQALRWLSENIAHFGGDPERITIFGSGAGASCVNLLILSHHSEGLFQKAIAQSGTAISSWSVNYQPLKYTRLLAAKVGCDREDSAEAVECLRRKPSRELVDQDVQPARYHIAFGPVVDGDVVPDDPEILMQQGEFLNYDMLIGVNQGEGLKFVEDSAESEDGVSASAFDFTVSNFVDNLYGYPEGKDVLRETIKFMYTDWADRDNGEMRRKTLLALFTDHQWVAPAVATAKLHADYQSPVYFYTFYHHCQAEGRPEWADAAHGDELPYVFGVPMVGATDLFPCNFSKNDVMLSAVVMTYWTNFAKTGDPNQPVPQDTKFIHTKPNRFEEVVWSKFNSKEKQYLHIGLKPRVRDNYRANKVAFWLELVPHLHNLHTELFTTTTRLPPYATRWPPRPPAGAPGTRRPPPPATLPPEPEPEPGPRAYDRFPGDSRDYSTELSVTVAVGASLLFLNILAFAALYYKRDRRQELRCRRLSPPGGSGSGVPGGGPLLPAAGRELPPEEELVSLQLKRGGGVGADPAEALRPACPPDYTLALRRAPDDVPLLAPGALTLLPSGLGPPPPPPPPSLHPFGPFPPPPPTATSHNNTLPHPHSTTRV

increase of co-precipitated gephyrin-FLAG against NL2HA: 140%
B1: gephyrin-FLAG (natural protein)
chain: MATEGMILTNHDHQIRVGVLTVSDSCFRNLAEDRSGINLKDLVQDPSLLGGTISAYKIVPDEIEEIKETLIDWCDEKELNLILTTGGTGFAPRDVTPEATKEVIEREAPGMALAMLMGSLNVTPLGMLSRPVCGIRGKTLIINLPGSKKGSQECFQFILPALPHAIDLLRDAIVKVKEVHDELEDLPSPPPPLSPPPTTSPHKQTEDKGVQCEEEEEEKKDSGVASTEDSSSSHITAAALAAKIPDSIISRGVQVLPRDTASLSTTPSESPRAQATSRLSTASCPTPKVQSRCSSKENILRASHSAVDITKVARRHRMSPFPLTSMDKAFITVLEMTPVLGTEIINYRDGMGRVLAQDVYAKDNLPPFPASVKDGYAVRAADGPGDRFIIGESQAGEQPTQTVMPGQVMRVTTGAPIPCGADAVVQVEDTELIRESDDGTEELEVRILVQARPGQDIRPIGHDIKRGECVLAKGTHMGPSEIGLLATVGVTEVEVNKFPVVAVMSTGNELLNPEDDLLPGKIRDSNRSTLLATIQEHGYPTINLGIVGDNPDDLLNALNEGISRADVIITSGGVSMGEKDYLKQVLDIDLHAQIHFGRVFMKPGLPTTFATLDIDGVRKIIFALPGNPVSAVVTCNLFVVPALRKMQGILDPRPTIIKARLSCDVKLDPRPEYHRCILTWHHQEPLPWAQSTGNQMSSRLMSMRSANGLLMLPPKTEQYVELHKGEVVDVMVIGRL
